Test results reported in paper doi:10.1101/2025.08.27.672771 (bioRxiv, 2025).

Target: the molecule itself
Assay: SEC

B1: human TRPC3 (hTRPC3) channel, GFP-MBP-tagged (natural protein, UniProt Q13507 86-921, looked up)
chain: MREKGRRQAVRGPAFMFNDRGTSLTAEEERFLDAAEYGNIPVVRKMLEESKTLNVNCVDYMGQNALQLAVGNEHLEVTELLLKKENLARIGDALLLAISKGYVRIVEAILNHPGFAASKRLTLSPCEQELQDDDFYAYDEDGTRFSPDITPIILAAHCQKYEVVHMLLMKGARIERPHDYFCKCGDCMEKQRHDSFSHSRSRINAYKGLASPAYLSLSSEDPVLTALELSNELAKLANIEKEFKNDYRKLSMQCKDFVVGVLDLCRDSEEVEAILNGDLESAEPLEVHRHKASLSRVKLAIKYEVKKFVAHPNCQQQLLTIWYENLSGLREQTIAIKCLVVLVVALGLPFLAIGYWIAPCSRLGKILRSPFMKFVAHAASFIIFLGLLVFNASDRFEGITTLPNITVTDYPKQIFRVKTTQFTWTEMLIMVWVLGMMWSECKELWLEGPREYILQLWNVLDFGMLSIFIAAFTARFLAFLQATKAQQYVDSYVQESDLSEVTLPPEIQYFTYARDKWLPSDPQIISEGLYAIAVVLSFSRIAYILPANESFGPLQISLGRTVKDIFKFMVLFIMVFFAFMIGMFILYSYYLGAKVNAAFTTVEESFKTLFWSIFGLSEVTSVVLKYDHKFIENIGYVLYGIYNVTMVVVLLNMLIAMINSSYQEIEDDSDVEWKFARSKLWLSYFDDGKTLPPPFSLVPSPKSFVYFIMRIVNFPKCRRRRLQKDIEMGMGNSKSRLNLFTQSNSRVFESHSFNSILNQPTRYQQIMKRLIKRYVLKAQVDKENDEVNEGELKEIKQDISSLRYELLEDKSQATEELAILIHKLSEKLNPSMLRCE
  stoichiometry N: 4
